# Reference: US20180155451A1 (published 2018)
# T1: FcγRIIb extracellular domain with C-terminal His tag (human, UniProt P31994 43-217)
# T1 construct: extracellular domain; also called FcgRIIb; 2b; not shown: His tag at the C terminus
# T1 sequence (looked up): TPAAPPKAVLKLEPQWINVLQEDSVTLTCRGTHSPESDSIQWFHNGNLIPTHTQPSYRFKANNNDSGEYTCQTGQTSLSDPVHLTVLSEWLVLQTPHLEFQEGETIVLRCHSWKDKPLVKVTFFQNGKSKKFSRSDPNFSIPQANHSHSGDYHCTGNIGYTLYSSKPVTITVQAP
# T2: FcγRIIa R (FcγRIIa, allotype R: Arg at position 131) extracellular domain with C-terminal His tag (human, UniProt P12318 34-217)
# T2 construct: extracellular domain; also called FcgRIIa R; 2aR; not shown: His tag at the C terminus
# T2 sequence (looked up): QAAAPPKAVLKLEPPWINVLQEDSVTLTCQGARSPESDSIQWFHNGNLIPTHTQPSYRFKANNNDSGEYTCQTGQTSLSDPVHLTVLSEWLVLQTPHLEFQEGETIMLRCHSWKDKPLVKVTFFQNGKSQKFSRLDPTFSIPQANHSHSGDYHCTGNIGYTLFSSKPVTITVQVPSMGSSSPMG
# T3: FcγRIIb (human, UniProt P31994 43-217)
# T3 construct: extracellular domain; also called FcgRIIb; 2b
# T3 sequence (looked up): T1 sequence (looked up)
# B1: GpH7-A5/GpH7-B3 variant A330_19Q/GpL16-k0 (antibody, human IgG1, kappa)
# heavy 1: not shown
# heavy 2: not shown
# light: DIVMTQSPLSLPVTPGEPASISCQASESLVHSNRNTYLHWYLQKPGQSPQLLIYKVSNRFSGVPDRFSGSGSGTDFTLKISRVEAEDVGVYYCSQNTHVPPTFGQGTKVEIERTVAAPSVFIFPPSDEQLKSGTASVVCLLNNFYPREAKVQWKVDNALQSGNSQESVTEQDSKDSTYSLSSTLTLSKADYEKHKVYACEVTHQGLSSPVTKSFNRGEC
# notes: He Ab: alteration in the GpH7-B3 H chain only; also called He Ab
# B2: GpH7-A5/GpH7-B3 variant E333_05P/GpL16-k0 (antibody, human IgG1, kappa)
# heavy 1: not shown
# heavy 2: not shown
# light: B1 light
# notes: as for B1
# B3: GpH7-A5/GpH7-B3 variant P331_08L/GpL16-k0 (antibody, human IgG1, kappa)
# heavy 1: not shown
# heavy 2: not shown
# light: B1 light
# notes: as for B1
# B4: GpH7-A5/GpH7-B3 variant A330_12R/GpL16-k0 (antibody, human IgG1, kappa)
# heavy 1: not shown
# heavy 2: not shown
# light: B1 light
# notes: as for B1
# B5: GpH7-A5/GpH7-B3 variant P331_09D/GpL16-k0 (antibody, human IgG1, kappa)
# heavy 1: not shown
# heavy 2: not shown
# light: B1 light
# notes: as for B1
# B6: GpH7-A5/GpH7-B3 variant P331_18N/GpL16-k0 (antibody, human IgG1, kappa)
# heavy 1: not shown
# heavy 2: not shown
# light: B1 light
# notes: as for B1
# B7: GpH7-A5/GpH7-B3 variant Q295_10E/GpL16-k0 (antibody, human IgG1, kappa)
# heavy 1: not shown
# heavy 2: not shown
# light: B1 light
# notes: as for B1
# B8: GpH7-A5/GpH7-B3 variant K326_12R/GpL16-k0 (antibody, human IgG1, kappa)
# heavy 1: not shown
# heavy 2: not shown
# light: B1 light
# notes: as for B1
# B9: GpH7-A5/GpH7-B3 variant A330_15Y/GpL16-k0 (antibody, human IgG1, kappa)
# heavy 1: not shown
# heavy 2: not shown
# light: B1 light
# notes: as for B1
# B10: GpH7-A5/GpH7-B3 variant P331_02A/GpL16-k0 (antibody, human IgG1, kappa)
# heavy 1: not shown
# heavy 2: not shown
# light: B1 light
# notes: as for B1
# B11: GpH7-A5/GpH7-B3 variant P331_14T/GpL16-k0 (antibody, human IgG1, kappa)
# heavy 1: not shown
# heavy 2: not shown
# light: B1 light
# notes: as for B1
# B12: GpH7-A5/GpH7-B3 variant P331_13S/GpL16-k0 (antibody, human IgG1, kappa)
# heavy 1: not shown
# heavy 2: not shown
# light: B1 light
# notes: as for B1
# B13: GpH7-A5/GpH7-B3 variant Y296_06M/GpL16-k0 (antibody, human IgG1, kappa)
# heavy 1: not shown
# heavy 2: not shown
# light: B1 light
# notes: as for B1
# B14: GpH7-A5/GpH7-B3 variant Y296_04F/GpL16-k0 (antibody, human IgG1, kappa)
# heavy 1: not shown
# heavy 2: not shown
# light: B1 light
# notes: as for B1
# B15: GpH7-A5/GpH7-B3 variant Y296_07I/GpL16-k0 (antibody, human IgG1, kappa)
# heavy 1: not shown
# heavy 2: not shown
# light: B1 light
# notes: as for B1
# B16: GpH7-A5/GpH7-B3 variant L234_04F/GpL16-k0 (antibody, human IgG1, kappa)
# heavy 1: not shown
# heavy 2: not shown
# light: B1 light
# notes: as for B1
# B17: GpH7-A5/GpH7-B3 variant Y296_10E/GpL16-k0 (antibody, human IgG1, kappa)
# heavy 1: not shown
# heavy 2: not shown
# light: B1 light
# notes: as for B1
# B18: GpH7-A5/GpH7-B3 variant A330_11K/GpL16-k0 (antibody, human IgG1, kappa)
# heavy 1: not shown
# heavy 2: not shown
# light: B1 light
# notes: as for B1
# B19: GpH7-A5/GpH7-B3 variant N325_10E/GpL16-k0 (antibody, human IgG1, kappa)
# heavy 1: not shown
# heavy 2: not shown
# light: B1 light
# notes: as for B1
# B20: GpH7-A5/GpH7-B3 variant S239_14T/GpL16-k0 (antibody, human IgG1, kappa)
# heavy 1: not shown
# heavy 2: not shown
# light: B1 light
# notes: as for B1
# B21: GpH7-A5/GpH7-B3 variant S324_04F/GpL16-k0 (antibody, human IgG1, kappa)
# heavy 1: not shown
# heavy 2: not shown
# light: B1 light
# notes: as for B1
# B22: GpH7-A5/GpH7-B3 variant Y296_16H/GpL16-k0 (antibody, human IgG1, kappa)
# heavy 1: not shown
# heavy 2: not shown
# light: B1 light
# notes: as for B1
# B23: GpH7-A5/GpH7-B3 variant Q295_06M/GpL16-k0 (antibody, human IgG1, kappa)
# heavy 1: not shown
# heavy 2: not shown
# light: B1 light
# notes: as for B1
# B24: GpH7-A5/GpH7-B3 variant H268_11K/GpL16-k0 (antibody, human IgG1, kappa)
# heavy 1: not shown
# heavy 2: not shown
# light: B1 light
# notes: as for B1
# B25: GpH7-A5/GpH7-B3 variant Y296_14T/GpL16-k0 (antibody, human IgG1, kappa)
# heavy 1: not shown
# heavy 2: not shown
# light: B1 light
# notes: as for B1
# B26: GpH7-A5/GpH7-B3 variant H268_12R/GpL16-k0 (antibody, human IgG1, kappa)
# heavy 1: not shown
# heavy 2: not shown
# light: B1 light
# notes: as for B1
# B27: GpH7-A5/GpH7-B3 variant Y296_09D/GpL16-k0 (antibody, human IgG1, kappa)
# heavy 1: not shown
# heavy 2: not shown
# light: B1 light
# notes: as for B1
# B28: GpH7-A5/GpH7-B3 variant N325_15Y/GpL16-k0 (antibody, human IgG1, kappa)
# heavy 1: not shown
# heavy 2: not shown
# light: B1 light
# notes: as for B1
# B29: GpH7-A5/GpH7-B3 variant Y296_13S/GpL16-k0 (antibody, human IgG1, kappa)
# heavy 1: not shown
# heavy 2: not shown
# light: B1 light
# notes: as for B1
# B30: GpH7-A5/GpH7-B3 variant N325_14T/GpL16-k0 (antibody, human IgG1, kappa)
# heavy 1: not shown
# heavy 2: not shown
# light: B1 light
# notes: as for B1
# B31: GpH7-A5/GpH7-B3 variant E333_04F/GpL16-k0 (antibody, human IgG1, kappa)
# heavy 1: not shown
# heavy 2: not shown
# light: B1 light
# notes: as for B1
# B32: GpH7-A5/GpH7-B3 variant I336_18N/GpL16-k0 (antibody, human IgG1, kappa)
# heavy 1: not shown
# heavy 2: not shown
# light: B1 light
# notes: heterodimerized IgG1, one H chain mutated; also called He Ab
# B33: GpH7-A5/GpH7-B3 variant S337_06M/GpL16-k0 (antibody, human IgG1, kappa)
# heavy 1: not shown
# heavy 2: not shown
# light: B1 light
# notes: as for B32
# B34: GpH7-A5/GpH7-B3 variant S337_19Q/GpL16-k0 (antibody, human IgG1, kappa)
# heavy 1: not shown
# heavy 2: not shown
# light: B1 light
# notes: as for B32
# B35: GpH7-A5/GpH7-B3 variant S337_03V/GpL16-k0 (antibody, human IgG1, kappa)
# heavy 1: not shown
# heavy 2: not shown
# light: B1 light
# notes: as for B32
# B36: GpH7-A5/GpH7-B3 variant S337_12R/GpL16-k0 (antibody, human IgG1, kappa)
# heavy 1: not shown
# heavy 2: not shown
# light: B1 light
# notes: as for B32
# B37: GpH7-A5/GpH7-B3 variant S337_11K/GpL16-k0 (antibody, human IgG1, kappa)
# heavy 1: not shown
# heavy 2: not shown
# light: B1 light
# notes: as for B32
# B38: GpH7-A5/GpH7-B3 variant S337_02A/GpL16-k0 (antibody, human IgG1, kappa)
# heavy 1: not shown
# heavy 2: not shown
# light: B1 light
# notes: as for B32
# B39: GpH7-A5/GpH7-B3 variant S337_04F/GpL16-k0 (antibody, human IgG1, kappa)
# heavy 1: not shown
# heavy 2: not shown
# light: B1 light
# notes: as for B32
# B40: GpH7-A5/GpH7-B3 variant I336_19Q/GpL16-k0 (antibody, human IgG1, kappa)
# heavy 1: not shown
# heavy 2: not shown
# light: B1 light
# notes: as for B32
# B41: GpH7-A5/GpH7-B3 variant S337_01G/GpL16-k0 (antibody, human IgG1, kappa)
# heavy 1: not shown
# heavy 2: not shown
# light: B1 light
# notes: as for B32
# Target: T1, FcγRIIb extracellular domain with …
# Assay: SPR Biacore, antibody captured, FcgR analyte; vs HeCon Ab GpH7-A5/GpH7-B3/GpL16-k0 = 100
# Description: (§1) The heterodimerized antibodies He Abs in which one of the H chains was introduced with an alteration were assayed for their binding activities to each activating FcγR and inhibitory FcγR according to the method described in Example 4. […] The activating FcγRs in FIGS. 26, 27, 28, and 29 are FcγRIa, FcγRIIa (R), FcγRIIa (H), and FcγRIIIa, respectively.
# (§2) Analysis of interaction between objective antibody and the FcγR was carried out using Biacore T100 (GE Healthcare). HBS-EP+ (GE Healthcare) was used as the running buffer, and the measurement temperature was set to 25° C. Chips produced by immobilizing the antigen peptide by the amine coupling method to a Series S Sencor Chip CM5 (GE Healthcare), or alternatively, chips produced by allowing preliminarily biotinylated antigen peptides to interact with and immobilize onto a Series S Sensor Chip SA (certified) (GE Healthcare) were used. Antibodies of interest were captured onto an antigen peptide-immobilized chip, and allowed to interact to each FcγR diluted with running buffer. To regenerate and repeatedly use the chip, the antibodies captured on the chip were washed off by reacting 10 mM glycine-HCl, pH 1.5.
row,Binder,He/Con_2b [control = 100]
1,B1,90.8
2,B2,97.7
3,B3,95.7
4,B4,84.8
5,B5,94.3
6,B6,99.2
7,B7,94.8
8,B8,89.2
9,B9,95
10,B10,99.5
11,B11,99.8
12,B12,96.8
13,B13,87.8
14,B14,99.2
15,B15,84.3
16,B16,99.8

row,Binder,He/Con_2b [control = 100]
1,B17,98
2,B18,95
3,B19,95.9
4,B20,97.3
5,B21,89.1
6,B22,92.2
7,B23,90.4
8,B24,83
9,B25,88.2
10,B26,89.8
11,B27,98.9
12,B28,99.5
13,B29,86.3
14,B30,91.6
15,B31,94.6

# Target: T2, FcγRIIa R (FcγRIIa, allotype R: Arg at …)
# Assay: as above
# Description: as §1, §2
row,Binder,He/Con_2aR [control = 100]
1,B1,104
2,B2,105
3,B3,102
4,B4,104
5,B5,102
6,B6,105
7,B7,102
8,B8,103
9,B9,102
10,B10,106
11,B11,104
12,B12,105
13,B13,101
14,B14,109
15,B15,101
16,B16,104

row,Binder,He/Con_2aR [control = 100]
1,B17,103
2,B18,110
3,B19,105
4,B20,103
5,B21,104
6,B22,105
7,B23,102
8,B24,100
9,B25,103
10,B26,105
11,B27,106
12,B28,101
13,B29,102
14,B30,105
15,B31,102

# Target: T4, FcγRIa (human, UniProt P12314 16-292)
# T4 construct: extracellular domain; also called FcgRI; FcgRIa
# Assay: SPR (Biacore), relative to GpH7-A5/GpH7-B3/GpL16-k0 = 100
# Description: as §1, §2
# T4 sequence (P12314 16-292): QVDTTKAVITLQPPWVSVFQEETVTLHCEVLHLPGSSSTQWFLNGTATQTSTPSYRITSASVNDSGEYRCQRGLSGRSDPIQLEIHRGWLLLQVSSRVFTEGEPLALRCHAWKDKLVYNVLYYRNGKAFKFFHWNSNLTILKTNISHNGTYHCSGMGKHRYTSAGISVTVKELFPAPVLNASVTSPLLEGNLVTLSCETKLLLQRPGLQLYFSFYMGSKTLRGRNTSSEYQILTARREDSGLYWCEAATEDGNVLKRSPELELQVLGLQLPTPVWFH
row,Binder,He/Con_1a (Ia binding)
1,B32,108 relative (control = 100)
2,B33,107 relative (control = 100)
3,B34,105 relative (control = 100)
4,B35,107 relative (control = 100)
5,B36,106 relative (control = 100)
6,B37,104 relative (control = 100)
7,B38,106 relative (control = 100)
8,B39,106 relative (control = 100)
9,B40,104 relative (control = 100)
10,B41,107 relative (control = 100)

# Target: T3, FcγRIIb
# Assay: as above
# Description: as §1, §2
row,Binder,He/Con_2b (IIb binding)
1,B32,97.6 relative (control = 100)
2,B33,96.7 relative (control = 100)
3,B34,99.7 relative (control = 100)
4,B35,98.9 relative (control = 100)
5,B36,99.5 relative (control = 100)
6,B37,94.3 relative (control = 100)
7,B38,97.2 relative (control = 100)
8,B39,97.8 relative (control = 100)
9,B40,58.2 relative (control = 100)
10,B41,92 relative (control = 100)
